B1: XPA23 light chain W32S (Fab, V domains shown)
VH: EVQLLESGGGLVQPGGSLRLSCAASGFTFSKYFMFWVRQAPGKGLEWVSVISPSGGMTRYADSVKGRFTISRDNSKNTLYLQMNSLRAEDTAVYYCARVGYGGNSDYWGQGTLVTVSS
VL: DIQMTQSPSSVSASVGDRLTIICRASQDINRSLAWYQQTPGNAPKLLIHSATSLQSGVPSRFSGSGSGTDFTLTINSLQPEDFATYYCQQADSFPLTFGGGTKVEIK
B2: XPA23 light chain W32Q (Fab, V domains shown)
VH: EVQLLESGGGLVQPGGSLRLSCAASGFTFSKYFMFWVRQAPGKGLEWVSVISPSGGMTRYADSVKGRFTISRDNSKNTLYLQMNSLRAEDTAVYYCARVGYGGNSDYWGQGTLVTVSS
VL: DIQMTQSPSSVSASVGDRLTIICRASQDINRQLAWYQQTPGNAPKLLIHSATSLQSGVPSRFSGSGSGTDFTLTINSLQPEDFATYYCQQADSFPLTFGGGTKVEIK
B3: XPA23 light chain W32Y (Fab, V domains shown)
VH: EVQLLESGGGLVQPGGSLRLSCAASGFTFSKYFMFWVRQAPGKGLEWVSVISPSGGMTRYADSVKGRFTISRDNSKNTLYLQMNSLRAEDTAVYYCARVGYGGNSDYWGQGTLVTVSS
VL: DIQMTQSPSSVSASVGDRLTIICRASQDINRYLAWYQQTPGNAPKLLIHSATSLQSGVPSRFSGSGSGTDFTLTINSLQPEDFATYYCQQADSFPLTFGGGTKVEIK
B4: XPA23 light chain W32V (Fab, V domains shown)
VH: EVQLLESGGGLVQPGGSLRLSCAASGFTFSKYFMFWVRQAPGKGLEWVSVISPSGGMTRYADSVKGRFTISRDNSKNTLYLQMNSLRAEDTAVYYCARVGYGGNSDYWGQGTLVTVSS
VL: DIQMTQSPSSVSASVGDRLTIICRASQDINRVLAWYQQTPGNAPKLLIHSATSLQSGVPSRFSGSGSGTDFTLTINSLQPEDFATYYCQQADSFPLTFGGGTKVEIK
B5: XPA23 light chain W32R (Fab, V domains shown)
VH: EVQLLESGGGLVQPGGSLRLSCAASGFTFSKYFMFWVRQAPGKGLEWVSVISPSGGMTRYADSVKGRFTISRDNSKNTLYLQMNSLRAEDTAVYYCARVGYGGNSDYWGQGTLVTVSS
VL: DIQMTQSPSSVSASVGDRLTIICRASQDINRRLAWYQQTPGNAPKLLIHSATSLQSGVPSRFSGSGSGTDFTLTINSLQPEDFATYYCQQADSFPLTFGGGTKVEIK
B6: XPA23 light chain W32P (Fab, V domains shown)
VH: EVQLLESGGGLVQPGGSLRLSCAASGFTFSKYFMFWVRQAPGKGLEWVSVISPSGGMTRYADSVKGRFTISRDNSKNTLYLQMNSLRAEDTAVYYCARVGYGGNSDYWGQGTLVTVSS
VL: DIQMTQSPSSVSASVGDRLTIICRASQDINRPLAWYQQTPGNAPKLLIHSATSLQSGVPSRFSGSGSGTDFTLTINSLQPEDFATYYCQQADSFPLTFGGGTKVEIK
B7: XPA23 light chain W32T (Fab, V domains shown)
VH: EVQLLESGGGLVQPGGSLRLSCAASGFTFSKYFMFWVRQAPGKGLEWVSVISPSGGMTRYADSVKGRFTISRDNSKNTLYLQMNSLRAEDTAVYYCARVGYGGNSDYWGQGTLVTVSS
VL: DIQMTQSPSSVSASVGDRLTIICRASQDINRTLAWYQQTPGNAPKLLIHSATSLQSGVPSRFSGSGSGTDFTLTINSLQPEDFATYYCQQADSFPLTFGGGTKVEIK
B8: XPA23 heavy chain D106G (Fab, V domains shown)
VH: EVQLLESGGGLVQPGGSLRLSCAASGFTFSKYFMFWVRQAPGKGLEWVSVISPSGGMTRYADSVKGRFTISRDNSKNTLYLQMNSLRAEDTAVYYCARVGYGGNSGYWGQGTLVTVSS
VL: DIQMTQSPSSVSASVGDRLTIICRASQDINRWLAWYQQTPGNAPKLLIHSATSLQSGVPSRFSGSGSGTDFTLTINSLQPEDFATYYCQQADSFPLTFGGGTKVEIK
notes: Fab, periplasmic extract; also called C5A D106G
B9: XPA23 heavy chain F35T (Fab, V domains shown)
VH: EVQLLESGGGLVQPGGSLRLSCAASGFTFSKYFMTWVRQAPGKGLEWVSVISPSGGMTRYADSVKGRFTISRDNSKNTLYLQMNSLRAEDTAVYYCARVGYGGNSDYWGQGTLVTVSS
VL: DIQMTQSPSSVSASVGDRLTIICRASQDINRWLAWYQQTPGNAPKLLIHSATSLQSGVPSRFSGSGSGTDFTLTINSLQPEDFATYYCQQADSFPLTFGGGTKVEIK
notes: Fab, periplasmic extract; also called C5A F35T
B10: XPA23 heavy chain F33I (Fab, V domains shown)
VH: EVQLLESGGGLVQPGGSLRLSCAASGFTFSKYIMFWVRQAPGKGLEWVSVISPSGGMTRYADSVKGRFTISRDNSKNTLYLQMNSLRAEDTAVYYCARVGYGGNSDYWGQGTLVTVSS
VL: DIQMTQSPSSVSASVGDRLTIICRASQDINRWLAWYQQTPGNAPKLLIHSATSLQSGVPSRFSGSGSGTDFTLTINSLQPEDFATYYCQQADSFPLTFGGGTKVEIK
notes: Fab, periplasmic extract; also called C5A F33I
B11: XPA23 heavy chain F35L (Fab, V domains shown)
VH: EVQLLESGGGLVQPGGSLRLSCAASGFTFSKYFMLWVRQAPGKGLEWVSVISPSGGMTRYADSVKGRFTISRDNSKNTLYLQMNSLRAEDTAVYYCARVGYGGNSDYWGQGTLVTVSS
VL: DIQMTQSPSSVSASVGDRLTIICRASQDINRWLAWYQQTPGNAPKLLIHSATSLQSGVPSRFSGSGSGTDFTLTINSLQPEDFATYYCQQADSFPLTFGGGTKVEIK
notes: Fab, periplasmic extract; also called C5A F35L
B12: XPA23 heavy chain F35P (Fab, V domains shown)
VH: EVQLLESGGGLVQPGGSLRLSCAASGFTFSKYFMPWVRQAPGKGLEWVSVISPSGGMTRYADSVKGRFTISRDNSKNTLYLQMNSLRAEDTAVYYCARVGYGGNSDYWGQGTLVTVSS
VL: DIQMTQSPSSVSASVGDRLTIICRASQDINRWLAWYQQTPGNAPKLLIHSATSLQSGVPSRFSGSGSGTDFTLTINSLQPEDFATYYCQQADSFPLTFGGGTKVEIK
notes: Fab, periplasmic extract; also called C5A F35P
B13: XPA23 heavy chain F33V (Fab, V domains shown)
VH: EVQLLESGGGLVQPGGSLRLSCAASGFTFSKYVMFWVRQAPGKGLEWVSVISPSGGMTRYADSVKGRFTISRDNSKNTLYLQMNSLRAEDTAVYYCARVGYGGNSDYWGQGTLVTVSS
VL: DIQMTQSPSSVSASVGDRLTIICRASQDINRWLAWYQQTPGNAPKLLIHSATSLQSGVPSRFSGSGSGTDFTLTINSLQPEDFATYYCQQADSFPLTFGGGTKVEIK
notes: Fab, periplasmic extract; also called C5A F33V
B14: XPA23 heavy chain F33G (Fab, V domains shown)
VH: EVQLLESGGGLVQPGGSLRLSCAASGFTFSKYGMFWVRQAPGKGLEWVSVISPSGGMTRYADSVKGRFTISRDNSKNTLYLQMNSLRAEDTAVYYCARVGYGGNSDYWGQGTLVTVSS
VL: DIQMTQSPSSVSASVGDRLTIICRASQDINRWLAWYQQTPGNAPKLLIHSATSLQSGVPSRFSGSGSGTDFTLTINSLQPEDFATYYCQQADSFPLTFGGGTKVEIK
notes: Fab, periplasmic extract; also called C5A F33G
B15: XPA23 heavy chain F35A (Fab, V domains shown)
VH: EVQLLESGGGLVQPGGSLRLSCAASGFTFSKYFMAWVRQAPGKGLEWVSVISPSGGMTRYADSVKGRFTISRDNSKNTLYLQMNSLRAEDTAVYYCARVGYGGNSDYWGQGTLVTVSS
VL: DIQMTQSPSSVSASVGDRLTIICRASQDINRWLAWYQQTPGNAPKLLIHSATSLQSGVPSRFSGSGSGTDFTLTINSLQPEDFATYYCQQADSFPLTFGGGTKVEIK
notes: Fab, periplasmic extract; also called C5A F35A
B16: XPA23 heavy chain F35G (Fab, V domains shown)
VH: EVQLLESGGGLVQPGGSLRLSCAASGFTFSKYFMGWVRQAPGKGLEWVSVISPSGGMTRYADSVKGRFTISRDNSKNTLYLQMNSLRAEDTAVYYCARVGYGGNSDYWGQGTLVTVSS
VL: DIQMTQSPSSVSASVGDRLTIICRASQDINRWLAWYQQTPGNAPKLLIHSATSLQSGVPSRFSGSGSGTDFTLTINSLQPEDFATYYCQQADSFPLTFGGGTKVEIK
notes: Fab, periplasmic extract; also called C5A F35G
B17: XPA23 heavy chain F33P (Fab, V domains shown)
VH: EVQLLESGGGLVQPGGSLRLSCAASGFTFSKYPMFWVRQAPGKGLEWVSVISPSGGMTRYADSVKGRFTISRDNSKNTLYLQMNSLRAEDTAVYYCARVGYGGNSDYWGQGTLVTVSS
VL: DIQMTQSPSSVSASVGDRLTIICRASQDINRWLAWYQQTPGNAPKLLIHSATSLQSGVPSRFSGSGSGTDFTLTINSLQPEDFATYYCQQADSFPLTFGGGTKVEIK
notes: Fab, periplasmic extract; also called C5A F33P
B18: XPA23 heavy chain F33A (Fab, V domains shown)
VH: EVQLLESGGGLVQPGGSLRLSCAASGFTFSKYAMFWVRQAPGKGLEWVSVISPSGGMTRYADSVKGRFTISRDNSKNTLYLQMNSLRAEDTAVYYCARVGYGGNSDYWGQGTLVTVSS
VL: DIQMTQSPSSVSASVGDRLTIICRASQDINRWLAWYQQTPGNAPKLLIHSATSLQSGVPSRFSGSGSGTDFTLTINSLQPEDFATYYCQQADSFPLTFGGGTKVEIK
notes: Fab, periplasmic extract; also called C5A F33A
B19: XPA23 heavy chain F35I (Fab, V domains shown)
VH: EVQLLESGGGLVQPGGSLRLSCAASGFTFSKYFMIWVRQAPGKGLEWVSVISPSGGMTRYADSVKGRFTISRDNSKNTLYLQMNSLRAEDTAVYYCARVGYGGNSDYWGQGTLVTVSS
VL: DIQMTQSPSSVSASVGDRLTIICRASQDINRWLAWYQQTPGNAPKLLIHSATSLQSGVPSRFSGSGSGTDFTLTINSLQPEDFATYYCQQADSFPLTFGGGTKVEIK
notes: Fab, periplasmic extract; also called C5A F35I
B20: XPA23 heavy chain F33L (Fab, V domains shown)
VH: EVQLLESGGGLVQPGGSLRLSCAASGFTFSKYLMFWVRQAPGKGLEWVSVISPSGGMTRYADSVKGRFTISRDNSKNTLYLQMNSLRAEDTAVYYCARVGYGGNSDYWGQGTLVTVSS
VL: DIQMTQSPSSVSASVGDRLTIICRASQDINRWLAWYQQTPGNAPKLLIHSATSLQSGVPSRFSGSGSGTDFTLTINSLQPEDFATYYCQQADSFPLTFGGGTKVEIK
notes: Fab, periplasmic extract; also called C5A F33L
B21: XPA23 heavy chain F33T (Fab, V domains shown)
VH: EVQLLESGGGLVQPGGSLRLSCAASGFTFSKYTMFWVRQAPGKGLEWVSVISPSGGMTRYADSVKGRFTISRDNSKNTLYLQMNSLRAEDTAVYYCARVGYGGNSDYWGQGTLVTVSS
VL: DIQMTQSPSSVSASVGDRLTIICRASQDINRWLAWYQQTPGNAPKLLIHSATSLQSGVPSRFSGSGSGTDFTLTINSLQPEDFATYYCQQADSFPLTFGGGTKVEIK
notes: Fab, periplasmic extract; also called C5A F33T

What follows are binders tested against T1, IL-1β (UniProt P01584 117-269) (assay: Biacore, periplasmic extract).
T1 construct: Antigen immobilised on the Biacore chip
B1: no binding. B2: no binding. B3: no binding. B4: no binding. B5: no binding. B6: no binding. B7: no binding.

The binders below were run against T2, IL-1β (UniProt P01584 117-269) (assay: Biacore, Fab periplasmic extract).
T2 construct: Antigen of XPA23
For B8, the “fold difference in affinity against the original” value (“fold difference in affinity” for short) was 0.03 fold. B9 was tested, and the “fold difference in affinity” value was 0.74 fold. With B10 the “fold difference in affinity” value was 0.75 fold. In the case of B11, the “fold difference in affinity” value is reported as 0.78 fold. For B12, the “fold difference in affinity” value was 0.06 fold. B13 was tested, and the “fold difference in affinity” value was 0.76 fold. For B14, the “fold difference in affinity” value was 0.76 fold. With B15 the “fold difference in affinity” value was 0.07 fold. In the case of B16, the “fold difference in affinity” value is reported as 0.04 fold. For B17, the “fold difference in affinity” value was 0.91 fold. With B18 the “fold difference in affinity” value was 0.75 fold. B19 was tested, and the “fold difference in affinity” value was 0.85 fold. B20 was tested, and the “fold difference in affinity” value was 0.88 fold. For B21, the “fold difference in affinity” value was 0.78 fold.
